# Reference: patent US20140255383A1 (SYNAGEVA BIOPHARMA, published 2014)
# B1: recombinant human N-acetyl-alpha-D-glucosaminidase (rhNaGlu) produced from a transgenic avian (Gallus) (enzyme)
# chain: DEAREAAAVRALVARLLGPGPAADFSVSVERALAAKPGLDTYSLGGGGAARVRVRGSTGVAAAAGLHRYLRDFCGCHVAWSGSQLRLPRPLPAVPGELTEATPNRYRYYQNVCTQSYSFVWWDWARWEREIDWMALNGINLALAWSGQEAIWQRVYLALGLTQAEINEFFTGPAFLAWGRMGNLHTWDGPLPPSWHIKQLYLQHRVLDQMRSFGMTPVLPAFAGHVPEAVTRVFPQVNVTKMGSWGHFNCSYSCSFLLAPEDPIFPIIGSLFLRELIKEFGTDHIYGADTFNEMQPPSSEPSYLAAATTAVYEAMTAVDTEAVWLLQGWLFQHQPQFWGPAQIRAVLGAVPRGRLLVLDLFAESQPVYTRTASFQGQPFIWCMLHNFGGNHGLFGALEAVNGGPEAARLFPNSTMVGTGMAPEGISQNEVVYSLMAELGWRKDPVPDLAAWVTSFAARRYGVSHPDAGAAWRLLLRSVYNCSGEACRGHNRSPLVRRPSLQMNTSIWYNRSDVFEAWRLLLTSAPSLATSPAFRYDLLDLTRQAVQELVSLYYEEARSAYLSKELASLLRAGGVLAYELLPALDEVLASDSRFLLGSWLEQARAAAVSEAEADFYEQNSRYQLTLWGPEGNILDYANKQLAGLVANYYTPRWRLFLEALVDSVAQGIPFQQHQFDKNVFQLEQAFVLSKQRYPSQPRGDTVDLAKKIFLKYYPRWVAGSW
# modifications: glycosylated; glycans carry mannose-6-phosphate (3.2 moles of M6P per mole of protein), sites not stated
# Target: Mannose 6-phosphate receptor (M6P receptor) on human MPS IIIB fibroblasts (human)
# Assay: cell-based or functional assay
binder,measurement,value
B1,"cellular uptake: NaGlu activity in MPS IIIB fibroblasts treated with 0.3 µg/mL rhNaGlu for 24 hours, against wild-type fibroblasts",~50 % of wild-type activity
same,"cellular uptake: NaGlu activity in MPS IIIB fibroblasts treated with 1 µg/mL rhNaGlu for 24 hours, against wild-type fibroblasts",~4 fold of wild-type activity
same,"cellular uptake: NaGlu activity in MPS IIIB fibroblasts treated with 30 µg/mL rhNaGlu for 24 hours, against wild-type fibroblasts",≥ 40 fold of wild-type activity
